According to the DeepSol protein solubility set:

Test: soluble on expression in E. coli; label from the status in PepcDB or PDB records
With “GPGSMPPAPAPPFSSVSQCLSALLPPTAFSLLPLTHTHTHTHTHRTCTHIIFSEPHIVFYCVCPFTRCHRRRPLPSPLSLSLPQHTTLSTAINKHEAEVVLDWSMSRLARALAKPFTVPVAMCTRHVAAMDEPLKRHIDAYAARGEDITIAVWREYVDGQRALLPYRWTKFRSEVAYLTSGQMAITDLTFADLLVFIRFLTKCLFIFIVAVMVGRRSVFPSLEPTSPFVEEIVKNWQPNRLHGVAGAEYMACDQAAAAGYGHR” the “soluble on expression in E. coli” value was “soluble”. For “GPGSMPVPPPPPPPPPPPPPPPPPANSGGPSASVGGAAAAVFAEICQGGDNITARLRHVTDDQKMYKQNIRHGEVDMSELEHKKAAAEERRRAQQRTESTTGEEAAQPPVLTLEGDKRWVVKHQAGSPAVQLQLVLDKAEMRHAVRIENCHHAYITITNKVNSVSIVNCTKVQVALQVIVSSLEVLGCADVDVQVAQAAPTIDIERSTSVNVYLLDKDEARNTEIVTACSSTVNVLFPSEKEEDIVERAIPEQFVTRIVPDGKGGHKLCTKPSESF”, the “soluble on expression in E. coli” value was “soluble”. In the case of “GPGSMQIRRATMEDMYQMQHCNLRCLPENYNLRYYFYHILSWPQLLYVQEDYNRNIVGYVLAKMEDEEKPANIHGHITSIAVLRTHRRLGIASRVMRASMKEMEKEYDANYCSLHVRKTNDAALHLYQETLGFRCANVEKGYYVDEEDAFHMKKFFKGPNPGLYVAANRQLVRQQNSAAAAVTGMAALQRNGGTAPPPPPPSSSSAGGQRGENDTADLEKEQLKLVAELLEESNKESGKGRQQKQKQQQQSKGGNKRGKTKK”, the “soluble on expression in E. coli” value was “soluble”. With “GPGSMRDHAPTSAASATALVNPSLPNSSVVDASLTGAQKKSGASSTRQRPPTPLPSTTPPRSEQHYRMTETEAWLSASFGNLATMGDSNGNSGGARRHGGPSPSAAFPLTFQEVPAAVVNHLLSRITLIQSEEQRHRDAVTVEGREVSGSPEMADGAPLPTRNECRAIGEFMLANDTLLGRRPREGIDASACAPSALRLVSMPLFGDHRLATYSPQGAAANRRRRRRSKNRRAAGGGGDDVGELPCLATGNAGLAEPQEARGNGAGATPSTTSHPYSPRTFFVATQSHDVRRRLAAVTPLLRLTTNPDALWIEQRGTAYHYGEEGAEARRPHIDMKGLGNCSSFSVAAAASSRGGRGSSEPGPPRSASFSHTPSFPHAATATTTVIAAAPQLSRADVAFMKHLGTAAEVPLPAKPSHHPHQQEQQQLQLRASPASDTGVSNRAPVDRKRRRQKGQNPLSMKKKQRREVFRAH” the “soluble on expression in E. coli” value was “not soluble”. In the case of “GPGSMRLLSKAAHPDGSMEVRVSVGTAEDLWHLYNFILVGDLVLTKTRRKVPRENALGTLAAEMKMLKLEVEVKHIAFTPDELRIQGVNKKENNFVKTGAHHTLTIHANPPQEVRITKREWDSICEDRLKDACDESGKADTAAVLMSFGEAQVLLVTRSFVHIKAKVEVTISKKHKSDGKARDKSIERFFKQSLDALVTHVDFEKTKLVLLCSPGHVREEFHAYIKEVTQRADHGPLREVYLNLSRFLLVKVSSTTISGLKEALSDPGVAQRMESTKCVDDIRMWEKFQDTMNKDPDRCVYTPQYVYYAAMAGAVGGLMISDDVFRSENPTERRFFLSLVNFVRQSGSPTVNVFSSKHVTGEQLTQLGSVAAVLRFSCPEIDDMEVVPEFLASKEVEEFIRANATARVTV”, the “soluble on expression in E. coli” value was “not soluble”. In the case of “GPGSMRLSLLRRFCEYVPKGAPTQVSLSVETPYGVTRAFRMTEMAAAAADAERDAKGFFYLPRMDYDVGQGVAPLMSRKQFDVQYNVFHKAAVDRLNAHTLGSELEGHNLNVVIRNSSFDASHAVIHAAASEHFNYCFWYRSLRPWGTAVPARLKEELQLQYSQNGTLDAVKEVQRLFTVAALSQQSAGGWVYLVWTGKAFDVIPFDHGTCPIGSDLIPLLALNTHESARCYDYPLAAEDEEGDEVERFVRNFFKTCNWRLVEHYFLQCGRA”, the “soluble on expression in E. coli” value was “not soluble”. In the case of “GPGSMRPNVMLTIPKNTLQVFDMGLDFRSYLSRVDVNGLPVLGNVVSYEASKLTEVFTPTVGLLVTILHMLAHCTSSCSAVAWLKAYDAIQKMYIENSEEENTEAVRYAVEARAAIKDYLTGDAVPGTNLLCEKLLTLLDQQSGIHGSQAPSQRKVPREPKGAFCNLHLSDQKCYQDFACNQLHLQEVKTVRHRKIFYMRLIEVLKAEKRSRQQIRHRIKDSVFFARYGNKVTVQCQGKWIPFFKTVYTDGRLEQALRTQHFACGDSACADENCLGIHPQDRRVTTSSKLMDLNNPDVVLQQIEEEAERHLSMEGAFNDHEAEHISAAASSSSMPSPTSEMWRNTVREYVRQTGIPQVEADESLLRTLQDANVLATPTASTESLTPLLDELDMRTFSSSSPVREHPNAEIG”, the “soluble on expression in E. coli” value was “not soluble”. With “GPGSMRSAQLPSKLSSAAGSCKHWVVSVPNSSESYRCFCSLIDRALQPGTCHPYSVRFRLEHLLPADWSLLLGWCRRLTSCGGSFTYTSPGDISEQTESVGAVDDSEGHPAVVNAAFMHVVERCHGDFVPNNMIYHELQRRYTVYAPASPPPPEGPEDFTSFLGALQDSVCDGCLASLSEGDGNVGEDPLASQVPSLEATKHNQKVLGVGAAASMESEAHRQQGELLFNFFPHRVVVSDGIPCHSTHFVVMVNLKPVVPWHLMVVPIRCVGTLSALSAAEMEDLGHMIHLTISVLSHVLVKPAVTGTGDTSSNGGSRVERGCSPHSIGSPVPASVVGGGGFSIAIQQGELAGQTVPHLHVHVIPFDPRGKLAGEPEDEEQQRRQPPRTGAQMRKETEFLRPHFVRLANEKNMRGICATCG” the “soluble on expression in E. coli” value was “not soluble”. In the case of “GPGSMRTCASTLSHLCAQGPLRGSMHVTLHALVRFCAHVASSLRSGQATLHPSLPLRFSHPLRLPSARFSHSTGVLSLALPVMQHTHIHTLTHTYSSIYRRFTARLRLSDSTCYTQGSTHTHTQSICFSIHSPLSLSLSETSALLGAPSSSSFSATSPAYRVRTASSCNRLPDGHKHFRKYIYIYIYIYWALSRISLGASADLPWNVRIHRVRMTATEYQKLIGERRLSPEEEENLVQRLYFRQMKLTEQREEERRAILERTRAQMQKHISKDEEGRLVSRMYDQQVERFANSKAERDRKLEEEMHKNDKKMDSSEIDDQVRRIYEEELKRSQARREELYSRYMPTAEAKKIGKKELKGCVERLSHVDWEKRDEELFKKYVYPYDPKTTKISRDDEQAMANRLSTTKGAG”, the “soluble on expression in E. coli” value was “not soluble”. In the case of “GPGSMSFAQNGTAPSTPAQQSKPEPDASPVAGEGSTSGRCAFDPEALRNLIVNYLPPLMNEAQVYELFGQFGRIESVKIIYDKITGESRGYGFVKYYFFFSATYAVSCLNRFEIGGKKLKVAYANAPAAKEAYDMLRLSAVALSVQQQQAMQSMYYHQMVLAQEQQGASAASSVAASAPMVGGADYGPYMNRVGGGYAMRQRESGAGYAQGMYPGMVAGGSVYLAGPFASGSRIVTPAIAPIGF”, the “soluble on expression in E. coli” value was “not soluble”. With “GPGSMSSERYVDGDLGEPFNSAEPLTLPVVVQLLRGRRDTSLDHPASRLIEKTCRQVELMQETCADECRVQRVMETRLRLVNKNNRQQMNAHLGNFVVGEDGFATLPPESDDFLDTAEEEAMKMFEVVALGTLQPKTADEARELIPSLGRFEPADLNKVLEMLDSL” the “soluble on expression in E. coli” value was “not soluble”. In the case of “GPGSMTDFPKLNRIKSDDENMEKIHVAARKGQTDEVRRLIETGVSPTIQNRFGCTALHLACKFGCVDTAKYLASVGEVHSLWHGQKPIHLAVMANKTDLVVALVEGAKERGQMPESLLNECDEREVNEIGSHVKHCKGQTALHWCVGLGPEYLEMIKILVQLGASPTAKDKADETPLMRAMEFRNREALDLMMDTVPSKSSLRLDYANKQGNSHLHWAILINWEDVAMRFVEMGIDVNMEDNEHTVPLYLSVRAAMVLLTKELLQKTDVFLIQACPYHNGTTVLPDRVVWLDFVPAAADPSKQEVLQLLQEKLDEVVRSLNTGAGGAVKRKKKAAPAVKRMKLAPSAPVRTRSRSRARSSAVSK”, the “soluble on expression in E. coli” value was “soluble”. With “GPGSMTDLRGVLPSKVISTPSGFVECSTHNVRRKAECCEMKAVLNADMEVIDYICVCKHPFTCKSASERQSNGLAAASNARRNAPDGERSGTAPLVIDASSTSMTAQSQHHHHGGQPSAAGAADKEAGVSTLFAVSFYDASRSTPGPSASATAAAVSPKPSAKDGEDREDEKGKDTRANAMRISDSDSDTDDGDSLDNSPSFTAGATPATAATAASFPAAPRERSRYYDSLQNASTGGHAPPAKVCWGCGMTGHEKPACPNALCRTCHQKRGPYGSPHRCTPVVTPSPLIVYPTPSEWRAATQKTAAAAGEPNGMAAVRCVACNEYGHFDCSTVVLPSSYALVASSSPGPAAVPHTLVPTCCFCGVRGHTVFDCQQREHVNPDYFERRNQLFADSVRRGSGITAAGAPFSNSGSSSGYGHPSQQQRQQRFYGSPTGGAPLSSSSFTRYGNGRGGGGSGQRRERDWCDNREQRVGGSQYSNSRREGSAYNNDSYGGDRDHQRRRYESPSFSRAGGGPAPSSSLLMHGRDRCQEGGQRHHEERSRDSYGGSHQRYSEGEHGGAGSRGHGQRSHYSQQSQHSHRHGSSRRGGRLGDSGYYSDDNLF” the “soluble on expression in E. coli” value was “not soluble”. In the case of “GPGSMTEYLKDIGRTKPGDPMPPINLGPYDNPLLWNMLDPFGADRGHQRRPMSVSRDFMELHNVPIIFRDQCVHRWVPFHRCLKNLKPVTWGTANCHEFEEAWMICRAYETYRNQLLKTKFMELTKDYTAEDKKFFPSLLHLSVPTYMNSFYWTMAASQRLSGWDERDPANPMTWREPNRALMRAEFSPTNWEQGNLTNATGHKLITDDLVFDMVPGFPLPEDKRPETLY”, the “soluble on expression in E. coli” value was “not soluble”. In the case of “GPGSMTKGGSSVAEDAQLRAADTFEEAQTLLDVMLKQFHTMERNRTDPFISKVVIAGELKEDSSRPFSQVFQELIDAATVKSRNPLSEQSCPPSPPSGIFLDYGTHFVGLFEAVDRYVAELLILMDAECKSTEEPIFSDVRVLYLNDDVVPLGGQYVCFVDKIPGVVAQSEKVDVPEDVIAEMVADDVRKLTKLLSLVLSEGVSKRKNFLDNARTSHPTLFPNTSSLKMYVKSDLFLTLDEYHRVFGKLPELVRDVEVNHPVDQPLKY”, the “soluble on expression in E. coli” value was “soluble”. For “GPGSMTKLFHHNITAIHEKFQPPFSVDTFRRIARLVLARVEHMPPPDYYDGSAVWRRVRHYMRQWIKKPDPSEVCMVPLLDLVNHSNRPNCGLRVGPSSVVGGKGAITLYSIARINPGQEICRHYNFAINRPNALFRYGFLPFDLISIVEHDAIDEYLVKNQHMLREESEEVRMKQQKEREEIQKLEKIFQHARSGR”, the “soluble on expression in E. coli” value was “not soluble”. For “GPGSMTSKKAAKEKDEYTPQERLTAAALEYKKLEGHNQSSIERMYGALSSPFRVSNKPCEVPRAAVLRCFEEILGKTNNGENGSTDNLAETTVVGRSISGGNNADGRVLLSSDSRFPSVHRCYDAVLQYESCVVEKTLAQHHSLLAGFEARQLQEAESANEVPKAVASGA”, the “soluble on expression in E. coli” value was “not soluble”. For “GPGSMTTSGALFPSLVPGSRGASNKYLVEFRAGKMSLKGTTVTPDKRKGLVYIQQTDDSLIHFCWKDRTSGNVEDDLIIFPDDCEFKRVPQCPSGRVYVLKFKAGSKRLFFWMQEPKTDQDEEHCRKVNEYLNNPPMPGALGASGSSGHELSALGGEGGLQSLLGNMSHSQLMQLIGPAGLGGLGGLGALTGPGLASLLGSSGPPGSSSSSSSRSQSAAVTPSSTTSSTRATPAPSAPAAASATSPSPAPSSGNGASTAASPTQPIQLSDLQSILATMNVPAGPAGGQQVDLASVLTPEIMAPILANADVQERLLPYLPSGESLPQTADEIQNTLTSPQFQQALGMFSAALASGQLGPLMCQFGLPAEAVEAANKGDVEAFAKAMQNNAKPEQKEGDTKDKKDEEEDMSLD”, the “soluble on expression in E. coli” value was “soluble”. With “GPGSMVAKQHFLAAVKMTPARGAAAALSPPQTAEVVGRTAAGGKGCSGSFVDRRLENVMARAREMGWTSPESLIESLKAAQWHSHGKTPAIAEAEAAALPSPHVPAFKPDALSSSSDRHAQPRLPQPRDETPHQARKGAAVSGANSSITECWSGHGPVSQQPHTPHQGADACRAFPSSRTESADSAMRVEATRVLCSGGAAHAGLPSESLLSPPAAESSRVAGTGHAYPPAPLQGHEGLVSSGLTNPLTRLTMPTSATAGAAAAQPLIELEQELVKLRHLVRTLESKQFVHAHQSSAQASELQAQCAELQHQQLAQAKELRLALARLISVGNELEGLRDVKTHLQMQLTASQQESARLRDALLMGETRARDVQ” the “soluble on expression in E. coli” value was “not soluble”.
